Activity (% clones with deletions) data for two substances are collected here from patent US20110201118.

In series [1] the test system is TAL/GFP-L dTALEN (synthetic construct). In words: cell_activity. Conditions: paired with TAL/GFP-R; 5/10 clones at 0.5 ug/well in HEK293T; 0/4 without TALEN.
Series [2] relates to TAL/GFP-R dTALEN (synthetic construct). In words: cell_activity. The following applies: paired with TAL/GFP-L; 5/10 clones at 0.5 ug/well in HEK293T; 0/4 without TALEN.

The substance eGFP target, TAL/GFP-L half-site registered an activity (% clones with deletions) in series [1] of 50. In turn, eGFP target, TAL/GFP-R half-site showed an activity (% clones with deletions) in series [2] of 50.
